For assay [1], the target named is human Claudin 18.2 (CLDN18.2) expressed on cells (human) (UniProt P56856). As to the kind of experiment: cell-based or functional assay.
Assay [2] concerns the target T1, CLDN 7 expressed on HEK 293 cells (UniProt O95471).
T1 sequence (looked up): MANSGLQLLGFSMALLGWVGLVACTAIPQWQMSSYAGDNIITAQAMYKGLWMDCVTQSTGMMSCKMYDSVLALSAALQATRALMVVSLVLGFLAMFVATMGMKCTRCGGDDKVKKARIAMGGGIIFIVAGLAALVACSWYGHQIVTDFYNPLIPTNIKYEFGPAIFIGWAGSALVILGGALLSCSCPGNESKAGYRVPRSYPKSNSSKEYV
As to the kind of experiment: FACS, transfected HEK 293 cells. (In general: In flow cytometry, cells or beads pass a laser one at a time.)

Another assay concerns the target T2, Claudin-10.
T2 sequence (P78369 1-228, species assumed, looked up): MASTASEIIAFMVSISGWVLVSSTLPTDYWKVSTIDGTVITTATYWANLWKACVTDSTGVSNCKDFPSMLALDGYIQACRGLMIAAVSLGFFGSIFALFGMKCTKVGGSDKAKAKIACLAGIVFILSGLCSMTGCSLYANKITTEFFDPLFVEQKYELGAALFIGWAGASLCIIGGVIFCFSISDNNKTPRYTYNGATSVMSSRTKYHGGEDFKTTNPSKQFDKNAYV
Put plainly: FACS, transfected HEK 293 cells.

For the next assay, the target named is T3, Claudin-11.
T3 sequence (O75508 whole entry, species assumed, looked up): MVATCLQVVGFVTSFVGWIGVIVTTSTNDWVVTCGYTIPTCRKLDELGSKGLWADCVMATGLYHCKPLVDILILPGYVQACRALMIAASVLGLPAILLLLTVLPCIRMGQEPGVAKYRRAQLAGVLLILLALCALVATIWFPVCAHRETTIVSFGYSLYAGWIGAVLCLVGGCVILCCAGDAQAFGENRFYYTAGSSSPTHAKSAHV
Put plainly: FACS, transfected HEK 293 cells.

In another assay the target is Claudin-12. As to the kind of experiment: FACS, transfected HEK 293 cells.
Another assay addresses Claudin-14. Put plainly: FACS, transfected HEK 293 cells.
In the next assay the target is T4, Claudin-16.
T4 sequence (Q9Y5I7 1-235, species assumed, looked up): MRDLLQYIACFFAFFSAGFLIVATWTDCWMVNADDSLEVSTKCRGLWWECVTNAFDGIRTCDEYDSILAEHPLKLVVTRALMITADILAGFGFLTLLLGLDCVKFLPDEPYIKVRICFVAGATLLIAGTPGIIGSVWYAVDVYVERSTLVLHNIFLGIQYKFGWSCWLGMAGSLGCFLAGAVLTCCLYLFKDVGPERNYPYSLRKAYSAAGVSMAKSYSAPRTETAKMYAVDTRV
As to the kind of experiment: FACS, transfected HEK 293 cells.

In the next assay the target is T5, Claudin-17.
T5 sequence (P56750 whole entry, species assumed, looked up): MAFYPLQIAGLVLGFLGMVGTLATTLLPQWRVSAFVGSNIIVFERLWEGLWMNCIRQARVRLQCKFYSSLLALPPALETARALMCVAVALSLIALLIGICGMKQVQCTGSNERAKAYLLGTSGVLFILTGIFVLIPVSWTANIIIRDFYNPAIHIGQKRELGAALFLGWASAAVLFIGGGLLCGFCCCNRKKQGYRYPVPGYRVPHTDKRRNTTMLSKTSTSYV
Put plainly: FACS, transfected HEK 293 cells.

The next assay has as its target T6, Claudin-19.
T6 sequence (Q8N6F1 whole entry, species assumed, looked up): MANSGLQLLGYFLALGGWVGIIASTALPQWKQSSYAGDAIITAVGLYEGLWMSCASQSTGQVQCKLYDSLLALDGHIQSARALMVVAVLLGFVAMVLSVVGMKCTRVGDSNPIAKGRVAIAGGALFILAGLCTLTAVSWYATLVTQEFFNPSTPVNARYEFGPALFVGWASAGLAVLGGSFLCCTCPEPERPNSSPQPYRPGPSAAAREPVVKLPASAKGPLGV
Put plainly: FACS, transfected HEK 293 cells.

A further assay concerns the target Claudin-1. Put plainly: FACS, transfected HEK 293 cells.
The target in another assay is Claudin-22. Put plainly: FACS, transfected HEK 293 cells.
A further assay has as its target T7, Claudin-23.
T7 sequence (Q96B33 1-292, species assumed, looked up): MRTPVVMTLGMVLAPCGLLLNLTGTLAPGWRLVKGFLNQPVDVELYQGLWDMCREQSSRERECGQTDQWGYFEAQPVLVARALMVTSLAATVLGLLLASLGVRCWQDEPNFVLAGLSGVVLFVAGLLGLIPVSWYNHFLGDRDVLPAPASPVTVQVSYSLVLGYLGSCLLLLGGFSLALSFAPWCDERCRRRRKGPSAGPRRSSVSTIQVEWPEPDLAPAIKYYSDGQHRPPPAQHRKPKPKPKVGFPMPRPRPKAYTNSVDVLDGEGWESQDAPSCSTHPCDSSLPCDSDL
As to the kind of experiment: FACS, transfected HEK 293 cells.

For the next assay, the target named is T8, Claudin-2.
T8 sequence (P57739 whole entry, species assumed, looked up): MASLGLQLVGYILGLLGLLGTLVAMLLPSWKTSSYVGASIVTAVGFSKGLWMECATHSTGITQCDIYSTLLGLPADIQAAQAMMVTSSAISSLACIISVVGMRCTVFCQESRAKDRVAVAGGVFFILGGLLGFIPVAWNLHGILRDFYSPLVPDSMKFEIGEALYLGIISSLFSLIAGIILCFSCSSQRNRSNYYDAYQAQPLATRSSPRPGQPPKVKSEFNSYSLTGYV
As to the kind of experiment: FACS, transfected HEK 293 cells.

The target of a further assay is Claudin-34. As to the kind of experiment: FACS, transfected HEK 293 cells.
A further assay deals with Claudin-3. Put plainly: FACS, transfected HEK 293 cells.
A further assay concerns the target Claudin-4. Put plainly: FACS, transfected HEK 293 cells.
The target of the next assay is T9, Claudin-5.
T9 sequence (O00501 whole entry, species assumed, looked up): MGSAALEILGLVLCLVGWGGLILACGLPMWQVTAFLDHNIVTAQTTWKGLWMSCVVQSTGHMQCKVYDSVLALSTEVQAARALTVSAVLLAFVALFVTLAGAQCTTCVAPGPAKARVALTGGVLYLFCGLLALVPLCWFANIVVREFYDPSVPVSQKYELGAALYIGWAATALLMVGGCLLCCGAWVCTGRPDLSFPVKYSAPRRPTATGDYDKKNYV
As to the kind of experiment: FACS, transfected HEK 293 cells.

For the next assay, the target named is Claudin-8. As to the kind of experiment: FACS, transfected HEK 293 cells.
For a further assay, the target named is Claudin-9. Put plainly: FACS, transfected HEK 293 cells.
Assay [3] concerns the target human Claudin 18.2 (CLDN18.2) expressed on cells (human) (UniProt P56856). Put plainly: FACS, purified antibody on HEK 293 cells expressing CLDN18.2.
Assay [4] has the same target. As to the kind of experiment: FACS, transfected HEK 293 cells, first 18.2 column.
Assay [5] has the same target. As to the kind of experiment: FACS, transfected HEK 293 cells, second 18.2 column.
Assay [6] deals with purified CLDN18.2 protein (CLDN18.2 ligand) (human) (UniProt P56856). Put plainly: Octet (ForteBio), antibody on anti-human IgG capture sensor, CLDN18.2 ligand in solution, 1:1 fit.
The target is the same in assay [7]. As to the kind of experiment: BLI (ForteBio Octet RED 96), antibody on anti-human IgG capture sensor, CLDN18.2 ligand in solution, 1:1 fit. In general terms: In BLI a coated tip is dipped into the sample, and binding shifts an interference pattern.
The target is the same in assay [8]. Put plainly: Octet (ForteBio), antibody on anti-human IgG capture sensor, CLDN18.2 ligand in solution, 1:1 fit; kdis(1/s).
Assay [9] addresses CLDN18.1 expressed on HEK 293 cells (UniProt P56856). Put plainly: FACS, hybridoma supernatant on HEK 293 cells expressing CLDN 18.1.
For assay [10] the target is unchanged. As to the kind of experiment: FACS, transfected HEK293 cells, 10 ug/ml; HEK293 alone 14.2.
Assay [11] has as its target human Claudin 18.2 (CLDN18.2) expressed on cells (human) (UniProt P56856). The assay is described as above.
The next assay addresses mouse-18.1 (mouse) (UniProt P56857). The assay is described as above.
In another assay the target is mouse-18.2 (mouse) (UniProt P56857). The assay is described as above.
The target of assay [12] is human Claudin 18.2 (CLDN18.2) expressed on cells (human) (UniProt P56856). As to the kind of experiment: FACS, purified chimeric antibody on HEK 293 cells expressing CLDN18.2.

“And” between values parts separate entries of the source, which are not always exact repeats. Equal entries are not always repeated.

Sequence of mouse-18.2 (mouse) (P56857 other isoform, or with tags, fused parts or gaps): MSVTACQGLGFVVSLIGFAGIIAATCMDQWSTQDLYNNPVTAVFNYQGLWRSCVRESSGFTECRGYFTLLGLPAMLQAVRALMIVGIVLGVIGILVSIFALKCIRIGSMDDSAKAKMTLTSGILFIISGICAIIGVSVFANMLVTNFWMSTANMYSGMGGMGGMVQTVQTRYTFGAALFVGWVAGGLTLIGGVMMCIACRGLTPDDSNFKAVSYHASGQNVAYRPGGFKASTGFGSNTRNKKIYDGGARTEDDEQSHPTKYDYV
Sequence of mouse-18.1 (mouse) (P56857 whole entry): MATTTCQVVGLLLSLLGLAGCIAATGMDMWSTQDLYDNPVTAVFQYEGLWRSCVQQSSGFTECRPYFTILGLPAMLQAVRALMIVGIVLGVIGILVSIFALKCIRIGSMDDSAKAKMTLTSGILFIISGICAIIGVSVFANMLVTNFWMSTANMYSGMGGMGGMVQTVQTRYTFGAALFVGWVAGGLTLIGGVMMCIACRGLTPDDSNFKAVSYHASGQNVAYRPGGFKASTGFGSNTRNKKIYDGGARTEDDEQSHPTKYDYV

B1: Internal Reference (reference antibody with the heavy and light chain sequences of Zolbetuximab) (antibody, INN chains, looked up, V domains shown)
VH: QVQLQQPGAELVRPGASVKLSCKASGYTFTSYWINWVKQRPGQGLEWIGNIYPSDSYTNYNQKFKDKATLTVDKSSSTAYMQLSSPTSEDSAVYYCTRSWRGNSFDYWGQGTTLTVSS
VL: DIVMTQSPSSLTVTAGEKVTMSCKSSQSLLNSGNQKNYLTWYQQKPGQPPKLLIYWASTRESGVPDRFTGSGSGTDFTLTISSVQAEDLAVYYCQNDYSYPFTFGSGTKLEIKR
In the case of B1, the ADCC NUGC4 Cells in [1] is 610 ng/mL. For the same molecule, in assay [1], the ADCC with 293 cells expressing Claudin 18.2 is 0.014 nM and 0.006 nM. Moreover, the MFI worked out at 21.4 in assay [2]; 20.8 in the assay with Claudin-10; 19.3 in the assay with Claudin-11; 21.4 with Claudin-12; 21.2 with Claudin-14; 19.5 with Claudin-16. Further, the MFI with Claudin-17 is 19.6; in the assay with Claudin-19, 18.1; in the assay with Claudin-1 it was 20.9; with Claudin-22, 19.9; with Claudin-23, 19.8; with Claudin-2, 19.7. The MFI was 21.1 with Claudin-34; 20.8 in the assay with Claudin-3; 18.7 in the assay with Claudin-4; 18.4 with Claudin-5; 20.4 with Claudin-8; 20.4 in the assay with Claudin-9. Besides, the MFI in [4] was 4040; in [5], 3880. For the same molecule, in assay [3], the EC50 was determined as 1.17 nM. In addition, in assay [3], the FACS Signal MFI (×1000) amounted to 25000 MFI. For the same molecule, the dissociation constant (Kd) is 86.9 nM in assay [6]; 89 nM and 71 nM in [7]. This molecule displayed a kon in assay [6] of 1600 M⁻¹ s⁻¹. The koff in [8] stood at 0.000139 s⁻¹.

B2: 11E12 (mouse hybridoma subclone antibody) (antibody, V domains shown)
VH: QVQLQQSGAELARPGASVKLSCKASGYTFTSYVINWVKQKTGQGLEWIGEIHPRGGNTYYSEKFRGRATLTADKSSSTAYMEFRSLTSEDSAVYFCAILRRGNAMDYWDQGTAVTVSS
VL: DIVMTQSPSSLPVTAGEMVTMSCKSSQSLLNSGNQRNYLTWYQQKPGQPPKLLIYWASTRESGVPDRFTGSGSGTDFTLTISSVQAEDLAVYYCQNSYNYPYTFGGGTKLERK
B2 yielded an MFI in [9] of 30.

B3: Clone # 46 (purified chimeric rabbit/human antibody) (antibody, V domains shown)
VH: QQQLVESGGGLVKPGGTLTLTCTVSGFYFNRGYWICWVRQAPGKGLEWIGCIDTGSGVPYYANWAKGRFTISKTSSTAVTLQMTSLTAADTATYFCARNSDSIYFNLWGPGTLVTVSS
VL: DIVMTQTPASVSEPVGGTVTIKCQASQSIGGYLSWYQQKPGQPPKLLIYKASTLASGVPSRFKGSGSGTDFTLTISDLECADAATYYCQNYAGVSIYGAVFGGGTKVVVVR
On to B3, for which the ADCC NUGC4 Cells in [1] turned out to be 70 ng/mL. This molecule registered an ADCC with 293 cells expressing Claudin 18.2 in assay [1] of 0.015 nM. Moreover, the MFI stood at 19.4 in [10], 553 in [11], 18.9 in the assay with mouse-18.1 (mouse) and 3490 with mouse-18.2 (mouse). This molecule also had an EC50 in assay [12] of 0.619 nM. The FACS Signal MFI (×1000) in [12] amounted to 55000 MFI. Moreover, the Kd amounted to 12.5 nM in assay [6] and 12 nM in assay [7]. In assay [6], this molecule returned an on-rate constant (kon) of 2320 M⁻¹ s⁻¹. Besides, the koff in [8] was 2.9e-05 s⁻¹.

As usually defined, the EC50 is the concentration at which the effect is half-maximal. Read a high EC50 as a less potent agent. The Kd is the equilibrium constant for the complex coming apart. In general, kon refers to the second-order rate constant of association. By koff is commonly meant a measure of how fast the partners let go of each other. Lower therefore signals a long-lived complex.

The values above are taken from patent US20200040101A1.
